T1: HCV Core1-169 (hepatitis C virus (HCV-1), UniProt P26664 1-169)
T1 sequence: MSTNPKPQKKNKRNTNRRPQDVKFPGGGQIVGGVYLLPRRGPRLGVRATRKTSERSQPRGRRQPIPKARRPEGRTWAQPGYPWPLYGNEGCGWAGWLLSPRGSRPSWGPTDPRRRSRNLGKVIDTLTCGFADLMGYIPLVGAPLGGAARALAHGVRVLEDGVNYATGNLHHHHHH


How the values were obtained:
[1] = biological target: T1, HCV Core1-169; assay: SPR sandwich, capture mAb C11-14
[2] = biological target: T1, HCV Core1-169; assay: SPR sandwich, capture mAb C11-7
[3] = biological target: T1, HCV Core1-169; assay: SPR sandwich, capture mAb C11-9
[4] = biological target: T2, HCV Core 134-171-TT Peptide (hepatitis C virus (HCV-1 numbering) …); assay: SPR, captured mAb, peptide analyte
T2 construct: also called ALRZ-9 peptide

[5] = biological target: T1, HCV Core1-169; assay: SPR sandwich, capture mAb C11-3

Binder | expected percent binding [1] | expected percent binding [2] | expected percent binding [3] | Kd [4] | koff [4] | kon [4] | expected percent binding [5]
HCV 208A-1064 (antibody, V domains shown) VH: EVQLQQSGPELVKPGASVKISCKTSGYTFTEYAMHWMKQSHGKSLEWIGGINPTNGDTIYNQKFKDKAKLTVDRSSSTAYMELRSLTSDDSALFYCARRELDYFASWGQGTTLTVSS VL: DIVLTQSPASLIVSLGQTATISCRASQSVSTSRFSYLHWIQQKPGQPPKLLIKYASNLESGVPVRFSGSGSGTDFTLNIHPVEEEDTATYFCQHSWEFPFTFGSGTKLKIKR | 16.3% | 19.6% | 10.5% | 0.21 nM | 0.00034 s⁻¹ | 1.6e+06 M⁻¹ s⁻¹ | 16.3%
HCV 208A-920 (antibody, V domains shown) VH: not shown VL: DIVLTQSPASLAVSLGQRATISCRASQSVSTSRYSYMHWYQQKPGQPPKLLIKYASNLESGVPARFSGSGSGTDFTLNIHPVAEEDTAAYYCQHSWEFPFTFGSGTKLEIKR | 19.1% | 22.9% | 13.2% | 0.39 nM | 0.00056 s⁻¹ | 1.5e+06 M⁻¹ s⁻¹ | 19.3%
HCV 208A-159 (antibody, V domains shown) VH: QLQQSGPAQVKPGASVMISCKTSGYTFTENAMHWVKQSHGKSLEWIGGVNPNNGDTIFNQKFKDKAALTVDKSSSTAFMELRSLTSEESTVYYCVRRELDFFDYWGQGTSVTVSS VL: DIVLTQSPASLAVSLGQRATISCRASQSVSTSRYSYVHWYQQKPGQPPKLLIKYAANLESGVPARFSGSGSGTDFTLNIHPVAEEDAAAYYCQHSWEFPFTFGSGTKLEIKR | 5.5% | 7% | 3.3% | 0.45 nM | 0.00065 s⁻¹ | 1.4e+06 M⁻¹ s⁻¹ | 4.6%
HCV 208A-110 (antibody, V domains shown) VH: not shown VL: DIVLTQSPASLAVSLGQRATISCRASQSVSTSRYSYMHWYQQKPGQPPKLLIKYASNLESGVPARFSGSGSGTDFTLNIHPVAEEDTAAYYCQHSWEFPFTFGSGTKLEIKR | 14.8% | 21.1% | 9.4% | 0.33 nM | 0.00055 s⁻¹ | 1.7e+06 M⁻¹ s⁻¹ | 15.7%
HCV 208A-133 (antibody, V domains shown) VH: QLQQSGPVLVGPGASVMISCKTSGYTFTENAMHWVEQSHGKSLEWIGGVNPNNGDTIFNQKFKGKATLTVDKSSSTAFMEFRSLTSEESTVYYCVRRELDFFDYWGQGTSVTVSS VL: DIVLTQSPASLAVSLGQRATISCRASQSVSTSRYSYMHWYQQKPGQPPKLLIKYASNLESGVPARFSGSGSGTDFTLNIHPVAEEDTATYYCQHSWEFPFTFGSGTKLEIKR | 9.3% | 13.9% | 5.8% | 0.41 nM | 0.0005 s⁻¹ | 1.2e+06 M⁻¹ s⁻¹ | 9.8%
HCV 208A-741 (antibody, V domains shown) VH: QLQQSGPVLVKPGASVMISCKTSGYTFTENAMHWVKQSHGKSLEWIGGVNPNNGDTIFNQKFKGKATLTVDKSSSTAFMELRSLTSEESTVYYCVRRELDFFDYWGQGTSVTVSS VL: DIVLTQSPASLAVSLGQRTTISCGASQSVSTSRFSYMHWYQQKPGQPPKLLIKYASNLESGVPARFSGSGSGTDFTLNIHPVAEEDTAAYYCQHSWEFPFTFGSGTKLEIKR | 21.2% | 22.7% | 14.2% | 0.41 nM | 0.00069 s⁻¹ | 1.7e+06 M⁻¹ s⁻¹ | 19.4%
HCV 208B-1094 (antibody, V domains shown) VH: EVQLQQSGPELVKPGASVKISCKTSGYTFTEYAMHWMKQSHGKSLEWIGGINPTNGDTIYNQRFKDKAKLTVDRSSSTAYMELRSLTSDDSALFYCARRELDYFASWGQGTTLTVSS VL: DIVLTQSPASLIVSLGQTATISCRASQSLSTSRFSYVHWIQQKPGQPPKLLIKYASNLESGVPVRFSGSGSGTDFTLNIHPVEEEDTATYFCQHSWEFPFTFGSGTKLKIKR | 27.8% | 28.4% | 19.8% | 0.16 nM | 0.00025 s⁻¹ | 1.5e+06 M⁻¹ s⁻¹ | 24.4%
HCV 208A-293 (antibody, V domains shown) VH: EVQLQQSGPELVKPGASVKISCKASGFTFTEYAMHWMKQSHGKSLEWIGGINPTNGDAIYNQKFKDKAKLTVDRSSSTAYMELRSLTSDDSALFYCARRELDYFPSWGQGTTLTVSS VL: DIVLTQSPASLIVSLGQRATISCRASQSVSTSRFSYVHWIQQKPGQPPKLLIKYASNLESGVPVRFSGSGSGTDFILNIHPVEEEDTATYFCQHSWEFPFTFGSGTKLEIKR | 16.4% | 20.9% | 11% | 0.11 nM | 0.00023 s⁻¹ | 2.1e+06 M⁻¹ s⁻¹ | 17.9%
HCV 208A-334 (antibody, V domains shown) VH: not shown VL: DIVLTQSPASLAVSLGQRATISCRASQSVSTSRYSYMHWYQQKPGQPPKLLIKYASNLESGVPARFSGSGSGTDFTLNIHPVAEEDTAAYYCQHSWGFPFTFGSGTKLEIKR | 15.9% | 20.6% | 10.3% | 0.34 nM | 0.00057 s⁻¹ | 1.7e+06 M⁻¹ s⁻¹ | 17.2%
HCV 208B-556 (antibody, V domains shown) VH: QLQQSGPVLVKPGASVMISCKTSGYTFTENAMHWVKQSHGKSLEWIGGVNPNNGDTIFNQKFKGKATLTVDKSSSTAFMEFRSLTSEESTVYYCVRRELDFFDYWGQGTSVTVSS VL: DIVLTQSPASLAVSLGQRATISCRASQSVSTSRYSYMHWYQQKPGQPPKLLIKYASNLESGVPARFSGSGSGTDFTLNIHPVAEEDTATYYCQHSWEFPFTFGSGTKLEIKR | 12.7% | 15.3% | 8.3% | 0.4 nM | 0.0006 s⁻¹ | 1.5e+06 M⁻¹ s⁻¹ | 11.5%
HCV 208B-251 (antibody, V domains shown) VH: QLQQSGPVLVKPGASVKISCKTSGYTFTENAMHWVKQSHGKSLEWIGGVNPNNGDTIYNQKFKGKATLTVDKSSSTAFMELRSLTSEESPVYFCVRRELDFFDYWGQGTSVTVSS VL: DIVLTQSPASLAVSLGKKATISCRASQSVSTSRYSYMHWYQQKPGHPPKLLIKYASNLESGVPARFSGSGSGTDFTLNIHPVAEEDTAAYYCQHSWEFPFTFGSGTKLEIKR | 18.2% | 20.1% | 12.3% | 0.58 nM | 0.00065 s⁻¹ | 1.1e+06 M⁻¹ s⁻¹ | 16.6%
HCV 208A-134 (antibody, V domains shown) VH: QGQMQQSGAELAKPGASVKLSCKTSGFTFSSSYISWLKQKPGQSLEWIAWIYAGTGNTNYNQKFTDKAQLTVDTSSSTAYMQLSSLTTEDSAIYYCAISGTGFTYWGQGTLVTVSA VL: EVLMTQSPLSLPVSLGDQASISCRSSQSLEHTNGNTYLEWFLQRPGQPPKLLIYKVSSRFSGVPDRFSGSGSGTDFTLKISRVEAEDLGVYYCFQGSHVPFTFGSGTKLAIKR | ≤ 1% | ≤ 1% | ≤ 1% | 2.1 nM | 3.8e-05 s⁻¹ | 18000 M⁻¹ s⁻¹ | ≤ 1%

— US20170052184A1 (published 2017)
